This is an account of results in US20230192860A1 (Bristol-Myers Squibb, published 2023).

Broadly, the Kd is the constant that tells how readily two partners part at equilibrium. The low end stands for higher affinity, the high end for lower affinity. A word on the koff: it is the first-order rate constant of dissociation. A low value points to slow dissociation. As usually defined, the kon is the second-order rate constant of association. Low readings indicate slower complex formation, high ones faster complex formation.

In test [1] the target is T1, monovalent hVISTA-ECD (amino acids 32-193 of SEQ ID NO: 1 with a 7xHis tail) (human, UniProt Q9H7M9 33-193).
T1 construct: analyte of the SPR assays; also called huVISTA-His; human VISTA-ECD
T1 sequence (Q9H7M9 other isoform, or with tags, fused parts or gaps limits assumed): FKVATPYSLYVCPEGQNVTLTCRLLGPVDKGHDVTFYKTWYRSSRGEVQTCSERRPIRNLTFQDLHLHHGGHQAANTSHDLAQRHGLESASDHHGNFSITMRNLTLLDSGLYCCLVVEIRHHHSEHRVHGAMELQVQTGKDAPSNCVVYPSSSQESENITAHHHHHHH
The experiment in a line: SPR, pH 7.4 over pH 6.0. As to the method:
(§1) Further binding kinetic experiments were performed at various pHs on VISTA antibodies described herein by SPR as generally described in Example 9 above. Antibodies were normalized to 50 nM concentration in PBST pH 7.4 and captured on a Protein A CM5 chip (ID 4931) by injecting for 45 seconds at a 5 µL/min flow rate. An 8-point human VISTA titration ([…]) was prepared in PBST at pH 7.4, 6.9, 6.45, and 6.0. Titrations were injected over the captured antibodies for 180 seconds at 30 µL/min. Sensorgrams were fit to a 1:1 binding model in T200 evaluation software and the kinetic constants were reported.
(§2) Each table reports the data at one of the four tested pHs (7.4, 6.9, 6.45, and 6.0, respectively). The 8-point hVISTA titration used in these assays was chosen to provide increased confidence in kinetic values reported at neutral pH conditions. A relatively stringent cutoff for non-binding was applied in this assay. Certain progeny of P1-061029 antibody (P1-068757, ‘759, ‘765, ‘771, and ‘775) show no binding to hVISTA at micromolar concentrations at pH 7.4, while ‘761 and ‘767 show no binding to hVISTA at 100 nM at pH 7.4 but do show binding to hVISTA at micromolar concentrations.
In general terms: Surface plasmon resonance follows binding to a sensor surface in real time, without labels.

The target of test [2] is T1, monovalent hVISTA-ECD (amino acids …). The experiment in a line: SPR, Ab on Protein A, hVISTA 100-7.8 nM, pH 7.4. Here is the method: as §1
Test [3] shares this target. The experiment in a line: SPR 37C, Ab on Protein A, hVISTA-ECD 50-5 nM, pH 6.0, average. As to the method: Binding of several preparations of each of the ‘029 progeny clones and of the parent ‘029 antibodies, formatted as IgG1.3 antibodies, to human VISTA at pH 6.0 and 7.4 was measured by Surface plasmon resonance (SPR). SPR analysis was performed to measure koff and KD binding affinity measurements for VISTA Abs at acidic and neutral pHs using a Biacore® T100 instrument (GE Healthcare). […] Antibodies were diluted to 25 nM in PBST pH 7.4, and were captured across active biosensor flow cells at 5 ul/min for 60 seconds. A concentration series of 50 - 5 nM monovalent hVISTA-ECD (SEQ ID NO: 325) was prepared in pH 7.4 and 6.0 running buffers, and was injected over the captured antibodies at 40 ul/min to measure association and dissociation. Two 15 second injections of 10 mM glycine pH 1.5 were used to regenerate the Protein A capture surface between assay cycles. Rate constants ka (kₒₙ) and kd (koff) were derived from reference flow cell and 0 nM blank-subtracted sensorgrams, and were fit to a 1:1 binding model in Biacore® T200 Evaluation Software v.2.0. The affinity constant, KD was calculated as the ratio of rate constants koff/kₒₙ for each VISTA antibody.

Test [4] has as its target T2, hVISTA-ECD 6-His tag (human, UniProt Q9H7M9 33-193).
T2 construct: also called monovalent hVISTA-ECD; human VISTA
The experiment in a line: SPR, Ab on Protein A, hVISTA analyte, pH 6.45.

For test [5], the target named is T2, hVISTA-ECD 6-His tag. The experiment in a line: SPR; kd at pH 6.9 over kd at pH 6.0 (head prints 7.4). As to the method:
as §1, §2

The target in test [6] is T2, hVISTA-ECD 6-His tag. Kind of test: SPR; KD at pH 6.45 over KD at pH 6.0 (head prints 7.4).
In test [7] the target is T2, hVISTA-ECD 6-His tag. The experiment in a line: SPR, Ab on Protein A, hVISTA analyte, pH 6.9. As to the method: as §1, §2
In test [8] the target is T2, hVISTA-ECD 6-His tag. The experiment in a line: SPR; kd at pH 6.45 over kd at pH 6.0 (head prints 7.4). Here is the method:
as §1, §2

Test [9] addresses T2, hVISTA-ECD 6-His tag. The experiment in a line: SPR, Ab on Protein A, hVISTA analyte, pH 6.0.
Test [10] has as its target T2, hVISTA-ECD 6-His tag. The experiment in a line: SPR; KD at pH 6.9 over KD at pH 6.0 (head prints 7.4). Here is the method:
as §1, §2

T2 sequence (Q9H7M9 other isoform, or with tags, fused parts or gaps limits assumed): as above

B1: P1-070868 (P1-068761_E55A) (antibody, human IgG1, kappa, V domains shown)
VH: EVQLVESGGGLVQPGKSLRLSCAASGFTLEDEAMHWVRQAPGKGLEWVSGINWNSAEIGYADSVKGRFTISRDNAKNSLYLQMNSLRTEDTALYYCAKVPGYSHGWIDAEDVWGQGTMVTVSS
VL: not shown
notes: IgG1.3; also called P1-070868-6
Regarding B1, in test [1], the “7.4 KD/ 6.0 KD” value amounted to 625 and the “7.4 kd/ 6.0 kd” value was determined as 18.9. In test [2], binding was put at a Kd of 3400 nM, the koff came out at 0.044 s⁻¹ and the kon stood at 13000 M⁻¹ s⁻¹.

B2: P1-070908 (P1-068767_E55A) (antibody, human IgG1, kappa, V domains shown)
VH: EVQLVESGGGLVQPGKSLRLSCAASGFTLEDYAMHWVRQAPGKGLEWVSGIDWNSANIGYADSVKGRFTISRDNAKNSLYLQMNSLRTEDTALYYCAKVPGYSGGWIDAEDDWGQGTMVTVSS
VL: not shown
notes: IgG1.3; also called P1-070908-6
For B2, in test [1], the “7.4 KD/ 6.0 KD” value came out at 34.5 and the “7.4 kd/ 6.0 kd” value is 8.6. Further, in test [2], the Kd turned out to be 350 nM, the koff came out at 0.024 s⁻¹ and the kon amounted to 67000 M⁻¹ s⁻¹.

B3: P1-070906 (P1-068767_D52N) (antibody, human IgG1, kappa, V domains shown)
VH: EVQLVESGGGLVQPGKSLRLSCAASGFTLEDYAMHWVRQAPGKGLEWVSGINWNSENIGYADSVKGRFTISRDNAKNSLYLQMNSLRTEDTALYYCAKVPGYSGGWIDAEDDWGQGTMVTVSS
VL: not shown
notes: IgG1.3; also called P1-070906-6
For B3, in [1], the “7.4 KD/ 6.0 KD” value is 731 and the “7.4 kd/ 6.0 kd” value stood at 15.3. In test [2], the Kd came out at 4400 nM, the koff was determined as 0.029 s⁻¹ and the kon came out at 6500 M⁻¹ s⁻¹.

B4: P1-070914 (P1-068767_E30D_D52N) (antibody, human IgG1, kappa, V domains shown)
VH: EVQLVESGGGLVQPGKSLRLSCAASGFTLDDYAMHWVRQAPGKGLEWVSGINWNSENIGYADSVKGRFTISRDNAKNSLYLQMNSLRTEDTALYYCAKVPGYSGGWIDAEDDWGQGTMVTVSS
VL: not shown
notes: IgG1.3; also called P1-070914-3
Regarding B4, in test [1], the “7.4 KD/ 6.0 KD” value was 396 and the “7.4 kd/ 6.0 kd” value was 14.6. In test [2], this molecule yielded a Kd of 4200 nM, a koff of 0.035 s⁻¹ and a kon of 8400 M⁻¹ s⁻¹.

B5: P1-070916 (P1-068767_D52N_E55A) (antibody, human IgG1, kappa, V domains shown)
VH: EVQLVESGGGLVQPGKSLRLSCAASGFTLEDYAMHWVRQAPGKGLEWVSGINWNSANIGYADSVKGRFTISRDNAKNSLYLQMNSLRTEDTALYYCAKVPGYSGGWIDAEDDWGQGTMVTVSS
VL: not shown
notes: IgG1.3; also called P1-070916-6
B5: in test [1], the “7.4 KD/ 6.0 KD” value came out at 563 and the “7.4 kd/ 6.0 kd” value turned out to be 19.4. Moreover, in [2], the Kd was found to be 3700 nM, the koff amounted to 0.038 s⁻¹ and the kon turned out to be 10000 M⁻¹ s⁻¹.

B6: P1-068748 (antibody, human IgG1, kappa, V domains shown)
VH: QVQLVESGGGVVQPGRSLRLSCAASGFTFSHHAMHWVRQAPGKGLEWVAIIWYDGSNDDYADSVKGRFTISRDNSKNTLYLQMNSLRAEDTAVYYCARDSGFYDSYYFDYWGQGTLVTVSS
VL: EIVLTQSPATLSLSPGERATLSCRASQSVSSSYLAWYQQKPGQAPRLLIYDASNRATGIPARFSGSGSGTDFTLTISSLEPEDFATYYCQQYNSYPYTFGQGTKLEIKR
notes: IgG1.3; also called P1-068748-6
B6: in test [1], the “7.4 KD/ 6.0 KD” value amounted to 212 and the “7.4 kd/ 6.0 kd” value worked out at 9.9. In [2], binding was characterised by a dissociation constant (Kd) of 920 nM, the koff is 0.036 s⁻¹ and the kon was determined as 40000 M⁻¹ s⁻¹. In addition, in [3], the affinity, expressed as Kd, was 1 nM; the off-rate (koff) is 0.0015 s⁻¹; the kon was found to be 1.4e+06 M⁻¹ s⁻¹.

B7: P1-061520 (41F11 VK_A64G) (antibody, V domains shown)
VH: QVQLVESGGGLVKPGGSLRLSCAASGFTFSDYYMSWIRQAPGKGLEWVSYISNSGSPIYYADSVKGRFTISRDNAKNSLYLQMNSLRAEDTAVYYCARDLPGWYFDLWGRGTLVTVSS
VL: EIVLTQSPATLSLSPGERATLSCRASQSVSSYLAWYQQKPGQAPRLLIYDASNRATGIPARFSGSGSGTDFTLTISSLEPEDFAVYYCQQRNNWPRTFGQGTKVEIKR
notes: tied through the name 41F11 and the A64G change; also called P1-061520-21; VISTA.4.A64G
Take B7: in [1], the “7.4 KD/ 6.0 KD” value amounted to 0.1 and the “7.4 kd/ 6.0 kd” value worked out at 0. In addition, in test [2], the Kd worked out at 1.42 nM, the koff is 0.000871 s⁻¹ and the kon worked out at 613000 M⁻¹ s⁻¹.

B8: P1-070976 (41F11_VH_T28P_Y50W_S55E_D95H_L96E_P97E_Y100E; Vk_A64G) (antibody, V domains shown)
VH: QVQLVESGGGLVKPGGSLRLSCAASGFPFSDYYMSWIRQAPGKGLEWVSWISNSGEPIYYADSVKGRFTISRDNAKNSLYLQMNSLRAEDTAVYYCARHEEGWEFDLWGRGTLVTVSS
VL: EIVLTQSPATLSLSPGERATLSCRASQSVSSYLAWYQQKPGQAPRLLIYDASNRATGIPARFSGSGSGTDFTLTISSLEPEDFAVYYCQQRNNWPRTFGQGTKVEIK
notes: also called P1-070976-11
Consider B8, for which, in test [1], the “7.4 KD/ 6.0 KD” value was found to be 696 and the “7.4 kd/ 6.0 kd” value was found to be 7. For the same molecule, in [2], the Kd turned out to be 6900 nM, the koff amounted to 0.016 s⁻¹ and the kon was 2400 M⁻¹ s⁻¹.

B9: P1-061029 (antibody, human IgG1, kappa)
heavy: EVQLVESGGGLVQPGKSLRLSCAASGFTLDDYAMHWVRQAPGKGLEWVSGINWNSANIGYADSVKGRFTISRDNAKNSLYLQMNSLRTEDTALYYCAKVPGYSGGWIDAFDVWGQGTMVTVSSASTKGPSVFPLAPSSKSTSGGTAALGCLVKDYFPEPVTVSWNSGALTSGVHTFPAVLQSSGLYSLSSVVTVPSSSLGTQTYICNVNHKPSNTKVDKRVEPKSCDKTHTCPPCPAPEAEGAPSVFLFPPKPKDTLMISRTPEVTCVVVDVSHEDPEVKFNWYVDGVEVHNAKTKPREEQYNSTYRVVSVLTVLHQDWLNGKEYKCKVSNKALPAPIEKTISKAKGQPREPQVYTLPPSREEMTKNQVSLTCLVKGFYPSDIAVEWESNGQPENNYKTTPPVLDSDGSFFLYSKLTVDKSRWQQGNVFSCSVMHEALHNHYTQKSLSLSPG
light: not shown
notes: also called P1-061029-18; P1-061029.IgG1.3
For B9, the Kd with hVISTA-ECD 6-His tag [4] was 5.13 nM; in the test with hVISTA-ECD 6-His tag [7], 7.13 nM; with hVISTA-ECD 6-His tag [9], 2.91 nM. The off-rate (koff) with hVISTA-ECD 6-His tag [4] amounted to 0.0045 s⁻¹; with hVISTA-ECD 6-His tag [7] it was 0.00416 s⁻¹; with hVISTA-ECD 6-His tag [9] it was 0.00527 s⁻¹. Further, the on-rate (kon) was determined as 876000 M⁻¹ s⁻¹ with hVISTA-ECD 6-His tag [4], 583000 M⁻¹ s⁻¹ with hVISTA-ECD 6-His tag [7] and 1.81e+06 M⁻¹ s⁻¹ with hVISTA-ECD 6-His tag [9]. Also, the figures for the “7.4 kd/ 6.0 kd” value with hVISTA-ECD 6-His tag [5] and with hVISTA-ECD 6-His tag [8] were 0.8 and 0.9, respectively. The “7.4 KD/ 6.0 KD” value in the test with hVISTA-ECD 6-His tag [6] was 1.8; with hVISTA-ECD 6-His tag [10], 2.5.

B10: P1-068775 (antibody, human IgG1, kappa, V domains shown)
VH: EVQLVESGGGLVQPGKSLRLSCAASGFTLEDEAMHWVRQAPGKGLEWVSGIDWNSEEIGYADSVKGRFTISRDNAKNSLYLQMNSLRTEDTALYYCAKVPGYSHGWIDAEDDWGQGTMVTVSS
VL: not shown
notes: also called P1-068775-8; 029 progeny
In the case of B10, in the test with hVISTA-ECD 6-His tag [4], binding was put at a Kd of 220 nM, the koff was determined as 0.017 s⁻¹ and the kon worked out at 77000 M⁻¹ s⁻¹. For the same molecule, the “7.4 KD/ 6.0 KD” value with hVISTA-ECD 6-His tag [6] is 2.8. Besides, in the test with hVISTA-ECD 6-His tag [8], the “7.4 kd/ 6.0 kd” value stood at 1.8. In the test with hVISTA-ECD 6-His tag [9], this molecule displayed a Kd of 77 nM, a koff of 0.009 s⁻¹ and a kon of 120000 M⁻¹ s⁻¹.
